We go through two molecules from PMC8134030 (Biochemistry and Biophysics Reports, 2021).

Numbering of substitutions follows the chain as printed.

What all share (assay): pull-down
Experiment [1] deals with T1, MBP:Ncd^CTm (Drosophila, UniProt P20480 333-700).
T1 sequence (looked up): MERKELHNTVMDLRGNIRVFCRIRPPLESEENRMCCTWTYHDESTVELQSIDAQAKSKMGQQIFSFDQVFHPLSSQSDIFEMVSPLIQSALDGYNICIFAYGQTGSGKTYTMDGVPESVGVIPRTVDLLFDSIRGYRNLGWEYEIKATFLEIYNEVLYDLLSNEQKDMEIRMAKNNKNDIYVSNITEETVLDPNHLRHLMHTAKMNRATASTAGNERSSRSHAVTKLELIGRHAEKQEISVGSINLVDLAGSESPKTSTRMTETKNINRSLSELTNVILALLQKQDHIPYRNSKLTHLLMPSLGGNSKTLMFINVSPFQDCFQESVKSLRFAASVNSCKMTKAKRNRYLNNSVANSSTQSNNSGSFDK

The target in experiment [2] is T2, MBP:Ncd^CTm3A (Drosophila, UniProt P20480 333-700, H619A | R623A | H629A).
T2 sequence (looked up): T1 sequence (looked up) with H287A, R291A, H297A

Experiment [3] concerns the target T3, MBP:Ncd^FL (Drosophila, UniProt P20480 1-700).
T3 sequence (looked up): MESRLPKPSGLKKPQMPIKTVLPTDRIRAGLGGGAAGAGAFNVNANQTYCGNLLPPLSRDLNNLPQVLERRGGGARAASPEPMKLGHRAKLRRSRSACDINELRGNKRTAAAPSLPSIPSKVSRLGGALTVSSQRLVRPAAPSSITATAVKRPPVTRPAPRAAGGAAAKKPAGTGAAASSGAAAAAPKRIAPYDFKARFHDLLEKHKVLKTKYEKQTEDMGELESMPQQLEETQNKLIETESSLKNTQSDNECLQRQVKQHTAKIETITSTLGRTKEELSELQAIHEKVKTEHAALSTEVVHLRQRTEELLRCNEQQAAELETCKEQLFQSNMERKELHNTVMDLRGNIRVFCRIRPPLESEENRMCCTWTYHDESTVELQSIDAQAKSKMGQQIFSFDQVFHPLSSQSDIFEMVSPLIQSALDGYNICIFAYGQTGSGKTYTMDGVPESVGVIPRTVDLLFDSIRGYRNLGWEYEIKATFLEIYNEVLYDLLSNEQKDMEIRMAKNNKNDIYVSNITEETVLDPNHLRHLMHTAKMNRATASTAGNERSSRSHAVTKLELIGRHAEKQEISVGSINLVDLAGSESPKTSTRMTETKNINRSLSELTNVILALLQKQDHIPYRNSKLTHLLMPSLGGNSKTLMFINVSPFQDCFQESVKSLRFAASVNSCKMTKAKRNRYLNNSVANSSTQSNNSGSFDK

In general, Kd refers to the concentration at which binding is half-saturated. Low readings indicate tighter binding, high ones weaker binding.

B1: Ncd^nMBD, soluble untagged prey (domain or fragment, Drosophila, UniProt P20480 1-204, looked up)
chain: MESRLPKPSGLKKPQMPIKTVLPTDRIRAGLGGGAAGAGAFNVNANQTYCGNLLPPLSRDLNNLPQVLERRGGGARAASPEPMKLGHRAKLRRSRSACDINELRGNKRTAAAPSLPSIPSKVSRLGGALTVSSQRLVRPAAPSSITATAVKRPPVTRPAPRAAGGAAAKKPAGTGAAASSGAAAAAPKRIAPYDFKARFHDLLE
As to B1, in experiment [1], the Kd is approximately 2000 nM. The “fold reduction in binding affinity against WT” value in experiment [2] was approximately 10 fold.

B2: Ncd^CTm, soluble untagged prey (domain or fragment, Drosophila, UniProt P20480 333-700, looked up)
chain: T1 sequence (looked up)
For B2, the binding result in experiment [3] is “binds”.
